Key:
[1] = target: cpCas9-1011 circular permutation: residues 1012-1368, (GGS)n linker, then 1-1011 (Streptococcus pyogenes) (UniProt Q99ZW2); test: cell_activity; conditions: enrichment in RFP repression FACS screen, E. coli
[2] = target: cpCas9-1017 circular permutation: residues 1018-1368, (GGS)n linker, then 1-1017 (Streptococcus pyogenes) (UniProt Q99ZW2); test: cell_activity; conditions: enrichment in RFP repression FACS screen, E. coli
[3] = target: cpCas9-1042 circular permutation: residues 1043-1368, (GGS)n linker, then 1-1042 (Streptococcus pyogenes) (UniProt Q99ZW2); test: cell_activity; conditions: enrichment in RFP repression FACS screen, E. coli
[4] = target: cpCas9-1250 circular permutation: residues 1251-1368, (GGS)n linker, then 1-1250 (Streptococcus pyogenes) (UniProt Q99ZW2); test: cell_activity; conditions: enrichment in RFP repression FACS screen, E. coli
[5] = target: cpCas9-1283 circular permutation: residues 1284-1368, (GGS)n linker, then 1-1283 (Streptococcus pyogenes) (UniProt Q99ZW2); test: cell_activity; conditions: enrichment in RFP repression FACS screen, E. coli
[6] = target: cpCas9-182 circular permutation: residues 183-1368, (GGS)n linker, then 1-182 (Streptococcus pyogenes) (UniProt Q99ZW2); test: cell_activity; conditions: enrichment in RFP repression FACS screen, E. coli
[7] = target: cpCas9-200 circular permutation: residues 201-1368, (GGS)n linker, then 1-200 (Streptococcus pyogenes) (UniProt Q99ZW2); test: cell_activity; conditions: enrichment in RFP repression FACS screen, E. coli
[8] = target: cpCas9-231 circular permutation: residues 232-1368, (GGS)n linker, then 1-231 (Streptococcus pyogenes) (UniProt Q99ZW2); test: cell_activity; conditions: enrichment in RFP repression FACS screen, E. coli
[9] = target: cpCas9-271 circular permutation: residues 272-1368, (GGS)n linker, then 1-271 (Streptococcus pyogenes) (UniProt Q99ZW2); test: cell_activity; conditions: enrichment in RFP repression FACS screen, E. coli
[10] = target: cpCas9-311 circular permutation: residues 312-1368, (GGS)n linker, then 1-311 (Streptococcus pyogenes) (UniProt Q99ZW2); test: cell_activity; conditions: enrichment in RFP repression FACS screen, E. coli
[11] = target: subset of circular permuted dCas9 proteins (CPs) with a TEV linker (ENLYFQ\S) between the N & C termini

Q: For “RFP-targeting guide RNA ; RFP reporter target”, which binding signal (log2 fold change) [1] is on record?
A: 17.3

Q: And the binding signal (log2 fold change) [2]?
A: 17

Q: And the binding signal (log2 fold change) [3]?
A: 17.8

Q: And the binding signal (log2 fold change) [4]?
A: 18.1

Q: And the binding signal (log2 fold change) [5]?
A: 18

Q: What about the binding signal (log2 fold change) [6] of the same molecule?
A: 17.1

Q: And the binding signal (log2 fold change) [7]?
A: 17.7

Q: What about the binding signal (log2 fold change) [8] of the same molecule?
A: 17.2

Q: What about the binding signal (log2 fold change) [9] of the same molecule?
A: 16.7

Q: And the binding signal (log2 fold change) [10]?
A: 15.6

B1: Tobacco Etch Virus (TEV) protease (protein)
chain: GESLFKGPRDYNPISSTICHLTNESDGHTTSLYGIGFGPFIITNKHLFRRNNGTLLVQSLHGVFKVKNTTTLQQHLIDGRDMIIIRMPKDFPPFPQKLKFREPQREERICLVTTNFQTKSMSSMVSDTSCTFPSSDGIFWKHWIQTKDGQCGSPLVSTRDGFIVGIHSASNFTNTNNYFTSVPKNFMELLTNQEAQQWVSGWRLNADSVLWGGHKVFMSKPEEPFQPVKEATQLMNELVYSQ
Q: With B1 as the molecule, how does the “western blot of linker cleavage” value [11] read?
A: the CPs were cleaved at the correct location when an active TEV protease was present in the cell

Reference: patent US20190233847
